The values below come from the supplement of paper PMC9170038.

This data set has as its system MS2 coat protein. The data set can be described thus: apparent KD of MS2 coat protein; designed switch direction (-1 OFF switch, 1 ON switch): 1; higher = weaker reporter binding. In outline: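 Designed RNA switches with common flanks were transcribed on Illumina chips by stalled E. coli RNA polymerase and titrated with SNAP-549-labelled MS2 coat protein, from 0.7 or 1.5 nM doubling to 3 µM, in Tris-HCl pH 7.5 buffer with KCl, MgCl2, BSA, DTT, tRNA and Tween-20. Steps lasted 0.8–1.5 h (lowest) to 10–20 min (highest). Titrations ran without input, with 200 uM small-molecule ligand, or with an oligonucleotide input. Normalised cluster fluorescence was curve-fitted, and apparent KD is the per-design median over clusters.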

Setting [1] is: input ligand: microRNA oligo, concentration not stated.
Setting [2] is: Eterna round: R95, input ligand: FMN 200 uM.
[3] abbreviates: Eterna round: R95, input ligand: microRNA oligo, concentration not stated.
Setting [4] is: Eterna round: R95, input ligand: none.

In the case of “GUGGAGGGUUGAGGAUAUUGAAUACAUAUGUUUAACAUGAGGAUCACCCAUGUGGGUUGCGGUAUCGAGAAGGUAAAUUACUGG [salish99_SSNG2_r04_036] (Eterna round: R96, puzzle: Same State NG 2)”, the “apparent KD of MS2 coat protein” value reads like this: (input ligand: FMN 200 uM) 0.0809 µM; under setting [1], 0.079 µM; (input ligand: none) 0.0863 µM.
Take “AGGUGAUAUGGAAAGGAUAUACGGUUUAGGACAUGAGGAUCACCCAUGUGGAAGAUGGCGAGAGAGUAGAAGGUUCGAAAUUGGU [JR_SS@_Sub024] (puzzle: Same State 2)”: the “apparent KD of MS2 coat protein” value runs as follows: under setting [2], 0.0434 µM; under setting [3], 0.075 µM; under setting [4], 0.0774 µM.
The like results for “GCAGAACAUGAGGAUCACCCAUGUCUCAAAUAUUGAGGAUAUGGACACGGUAUAUCCGAACCAGAAGGCGAACUGC [SS1 Teenbexe 18] (puzzle: Same State 1)” were, in that order, 0.0661 µM, 0.0743 µM and 0.0533 µM.
On the same counts, the results for “AGUGAAGAAGCUGAGGAUAUCGUAAGGAGGACAUGAGGAUCACCCAUGUGUGUGGAAUUGGAGGACGAGAAGGCAGAGGAGUGGG [JR_SS2_Sub057] (puzzle: Same State 2)” are 0.0393 µM, 0.0426 µM and 0.0227 µM.
On the same counts, the results for “AUAAGUUUGAUGCUCGUCUCUCCGUACAGACAUGAGGAUCACCCAUGUAGUCGGGCAGUAGCCCGGCCAGUAUGGCC [Raatbeor] (puzzle: Sensor for hsa-mir-208a)” are 0.103 µM, 0.0288 µM and 0.119 µM.
For the sequence “AGUCCAGCCUGAGCUGGACAAAAGCAUGUACAUGAGGAUCACCCAUGUCAUGUACAGGCUUUUUGCUCGUCUUAAAA [Zipper 46 - 8] (puzzle: Sensor for hsa-mir-208a)”, the “apparent KD of MS2 coat protein” value under setting [2] is 0.213 µM, the “apparent KD of MS2 coat protein” value under setting [3] was determined as 0.0161 µM and the “apparent KD of MS2 coat protein” value under setting [4] came out at 0.3 µM.
On the same counts, the results for “AUAAAACAUGAGGAUCACCCAUGUCAACAUAGUCGAGGAUAUGGGCAAAUAAAAUAAGAACCAGAAGGCGAAUAAU [salish99_ss1_r3_040] (puzzle: Same State 1)” are 0.0505 µM, 0.714 µM and 0.51 µM.
Consider “UUUUAUUUUUGGGUGCAAGCUUUUUGCUUACAUGAGGAUCACCCAUGUUUUUAUUUUUUAUUUUUAUUUUUAUUUUU (puzzle: Sensor for hsa-mir-208a)”, for which the “apparent KD of MS2 coat protein” value under setting [2] was found to be 0.0518 µM, the “apparent KD of MS2 coat protein” value under setting [3] came to 0.0603 µM and the “apparent KD of MS2 coat protein” value under setting [4] was 0.0867 µM.
Consider “GGAACACAUGAGGAUCACCCAUGUCAAGGAGGUCGAGGAUAUAGGAAAAAAAAAAAAAAAUUAGAAGGUGAGGAGG [V1] (Eterna round: R96, puzzle: Same State 1)”, for which the “apparent KD of MS2 coat protein” value by setting is: (input ligand: FMN 200 uM) 0.27 µM; under setting [1], 0.166 µM; (input ligand: none) 0.275 µM.
Consider “GUGAAACAUGAGGAUCACCCAUGUAUGACGGGCACAGGAUAUCGUGGUUCGCUCAUACUACGAGAAGGGUGAAAAG [Inordien] (puzzle: Same State 1)”, for which the “apparent KD of MS2 coat protein” value under setting [2] was found to be 0.0205 µM, the “apparent KD of MS2 coat protein” value under setting [3] is 0.018 µM and the “apparent KD of MS2 coat protein” value under setting [4] turned out to be 0.0189 µM.
On the same counts, the results for “CUAUCUACAGGUGUCUUUGCUCGUUUUAUACAUGAGGAUCACCCAUGUUAUAGCCCGGUGCUUGCGCUGGGCUGAUU [JL ViennaUCT Tearor mod 7] (puzzle: Sensor for hsa-mir-208a)” are 0.1 µM, 0.0155 µM and 0.0953 µM.
For the sequence “UUGAAGAAUUAAGGAUAUCGAGUCAAGAUGUUAAACAUGAGGAUCACCCAUGUGGGUUGCGGUAUCGAGAAGGUAAAUAAGAAG [Mat - Same State NG 2 - JL mod - D54] (Eterna round: R96, puzzle: Same State NG 2)”, the “apparent KD of MS2 coat protein” value amounted to 0.0443 µM (input ligand: FMN 200 uM), 0.0296 µM under setting [1] and 0.0448 µM (input ligand: none).
For the sequence “AGUAUACAUGAGGAUCACCCAUGUCUGUAACGGACAGGAUAUGCGUUGCAUCACUGUAAUGCAGAAGGGUCCUGUA [Same State 1 - Mod of JMF's solution 1 v.2] (puzzle: Same State 1)”, under setting [3], the “apparent KD of MS2 coat protein” value stood at 0.179 µM.
As for “AGCUAUGGAAAACUAUAGCAAAAGUAUGUACAUGAGGAUCACCCAUGUCAUGUACAAGCUUUUUGCUCGUCUUAAAA [ak 6 mod of one Eli's designs.] (puzzle: Sensor for hsa-mir-208a)”, the “apparent KD of MS2 coat protein” value reads like this: under setting [2], 0.201 µM; under setting [3], 0.0186 µM; under setting [4], 0.189 µM.
The like results for “AGUCCAGCCUGAGCUGGACAAAAGCAUGUACAUGAGGAUCACCCAUGUUCAUGUACAAGCUUUUUGCUCGUCUAAAU [Mat - hsa-mir-208a - Mod of JL - 46] (puzzle: Sensor for hsa-mir-208a)” were, in that order, 0.449 µM, 0.0155 µM and 0.682 µM.
The like results for “AAAGAUGGACAUGAGGAUCACCCAUGUGGAAAGUGAACAAGCUUUUGCUCGUGACAAAUGAACAAUCCAAUCCUAAA [mksensor] (puzzle: Sensor for hsa-mir-208a version 2)” were, in that order, 0.0263 µM, 0.0245 µM and 0.025 µM.
In the case of “AAUUAAGAUCAAGGAUAUCACGUCGAAUAGACGUGAGAAGGUGAUAAUUACAUGAGGAUCACCCAUGUAUAACAUGAAUUAAUU [SSNG1/9-B1] (Eterna round: R96, puzzle: Same State NG 1)”, the “apparent KD of MS2 coat protein” value was determined as 0.03 µM (input ligand: FMN 200 uM), 0.0248 µM under setting [1] and 0.038 µM (input ligand: none).
On the same counts, the results for “GUGGUCAGACAUGAGGAUCACCCAUGUGGAAUAAAUAAGGGUCAGGAUAUCUAAUAUAGGAUAUAAGAGAAGGGAUGGUUGGUG (Eterna round: R96, puzzle: Same State NG 3)” are 0.0892 µM, 0.0894 µM and 0.0827 µM.
Regarding “AUUAAACAUGAGGAUCACCCAUGUCAACAAAGUCGAGGAUAUGGGCAAUUAAAAUAAGAACCAGAAGGCGAAUAAU [salish99_ss1_r3_061] (puzzle: Same State 1)”, under setting [3], the “apparent KD of MS2 coat protein” value amounted to 0.224 µM.
In the case of “GCGAGGAUAUGCAGAGGAUCACCCUGUAGAAGGCGCAAAAGCGAGGAUAUGCAGAGGAUCACCCUGUAGAAGGCGCACUACUCU [pwkr ssNG3 DX 2xF5 +2xFMN.4] (Eterna round: R96, puzzle: Same State NG 3)”, the “apparent KD of MS2 coat protein” value by setting is: (input ligand: FMN 200 uM) 0.153 µM; under setting [1], 0.161 µM; (input ligand: none) 0.221 µM.
Turning to “AGUCCAGCCUGAGCUGGACAAAAGCAUGUACAUGAGGAUCACCCAUGUCAUGUACAAGCUUUUUGCUCGUAUUAAUA [Mat - hsa-mir-208a - Mod of JL - D30] (puzzle: Sensor for hsa-mir-208a)”, the “apparent KD of MS2 coat protein” value is 0.491 µM under setting [2], 0.0127 µM under setting [3] and 0.528 µM under setting [4].
